This note sets out measurements from patent publication US20120231005A1 (Merck Sharp & Dohme, published 2012).

The target of assay [1] is T1, human PCSK9 (human, UniProt Q8NBP7 31-692, limits assumed). Put plainly: cell-based or functional assay.
For the next assay, the target named is rhesus PCSK9 (rhesus, UniProt A8T644 31-692 (Pan troglodytes entry), limits assumed). Description: cell-based or functional assay.
The target in assay [2] is rhesus PCSK9 (rhesus). Put plainly: cell-based or functional assay.
In assay [3] the target is rhesus PCSK9 (rhesus). Description: affinity table, IgG2 (Biacore). A general note: In SPR one partner is held on a chip, and binding of the other changes the refractive index at the surface.
Assay [4] concerns the target T1, human PCSK9. Description: affinity table, IgG2 (Biacore). How it is done:
(§1) The affinities of those IgG molecules were also measured by Biacore assay. Briefly, anti-human IgG monoclonal antibody form Human Antibody Capture Kit provided by Biacore was immobilized on CM5 chips at a level of 8000 to 10000 RU. […] After each round injection, the sensor chip surface was regenerated by 30 second injection of 3M Magnesium Chloride.

Assay [5] deals with T1, human PCSK9. Description: affinity table, IgG2 (Biacore). As for the experimental part:
as §1
This is another data set of the same source.

In the next assay the target is T2, mouse PCSK9 (mouse, UniProt Q80W65 35-694, limits assumed).
T2 construct: also called Mouse PCSK9 9
T2 sequence (Q80W65 35-694 limits assumed): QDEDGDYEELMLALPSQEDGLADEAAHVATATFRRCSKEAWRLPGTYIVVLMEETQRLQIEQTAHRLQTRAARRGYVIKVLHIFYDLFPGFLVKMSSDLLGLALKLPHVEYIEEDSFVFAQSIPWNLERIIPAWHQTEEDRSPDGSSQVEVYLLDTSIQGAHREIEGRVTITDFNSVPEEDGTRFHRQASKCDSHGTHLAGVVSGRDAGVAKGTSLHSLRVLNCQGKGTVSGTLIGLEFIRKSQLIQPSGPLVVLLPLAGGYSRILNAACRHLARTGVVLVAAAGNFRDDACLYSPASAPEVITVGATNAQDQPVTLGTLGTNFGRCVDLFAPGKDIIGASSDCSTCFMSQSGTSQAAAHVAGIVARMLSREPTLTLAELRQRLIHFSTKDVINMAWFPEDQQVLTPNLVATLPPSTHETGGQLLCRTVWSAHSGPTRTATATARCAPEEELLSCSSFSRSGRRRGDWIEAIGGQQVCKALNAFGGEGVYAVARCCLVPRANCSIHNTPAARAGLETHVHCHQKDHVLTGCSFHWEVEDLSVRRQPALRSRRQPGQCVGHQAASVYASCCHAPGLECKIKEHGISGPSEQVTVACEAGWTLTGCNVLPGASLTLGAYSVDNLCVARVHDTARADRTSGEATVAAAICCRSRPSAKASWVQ
Description: affinity table, IgG2 (Biacore). How it is done:
as §1

The target of a further assay is T3, rat PCSK9 (rat, UniProt P59996 31-691, limits assumed).
T3 construct: also called rPCSK9
T3 sequence (P59996 31-691 limits assumed): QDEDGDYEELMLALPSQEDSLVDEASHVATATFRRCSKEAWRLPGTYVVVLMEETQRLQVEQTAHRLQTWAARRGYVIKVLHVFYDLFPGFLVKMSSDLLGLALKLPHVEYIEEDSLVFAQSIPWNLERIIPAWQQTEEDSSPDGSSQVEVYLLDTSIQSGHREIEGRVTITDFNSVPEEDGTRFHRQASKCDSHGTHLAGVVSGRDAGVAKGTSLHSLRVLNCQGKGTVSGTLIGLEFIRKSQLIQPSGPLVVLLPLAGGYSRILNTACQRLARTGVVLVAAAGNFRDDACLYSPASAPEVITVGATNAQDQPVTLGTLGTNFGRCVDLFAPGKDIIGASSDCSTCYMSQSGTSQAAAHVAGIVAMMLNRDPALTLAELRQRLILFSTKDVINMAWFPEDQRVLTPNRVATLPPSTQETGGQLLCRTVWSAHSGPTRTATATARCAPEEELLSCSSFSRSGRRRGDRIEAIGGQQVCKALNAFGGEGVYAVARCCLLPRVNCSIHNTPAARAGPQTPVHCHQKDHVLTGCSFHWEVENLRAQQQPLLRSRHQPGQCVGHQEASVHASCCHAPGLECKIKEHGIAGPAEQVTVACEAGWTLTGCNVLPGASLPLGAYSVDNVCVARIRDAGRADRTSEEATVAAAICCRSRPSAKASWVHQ
Put plainly: affinity table, IgG2 (Biacore). How it is done: as §1

Assay [6] concerns the target rhesus PCSK9 (rhesus). Put plainly: SPR (Biacore); IgG captured on anti-human IgG, PCSK9 injected.
Assay [7] deals with T1, human PCSK9. The assay is described as above. How it is done:
as §1

The target in assay [8] is T1, human PCSK9. Put plainly: TR-FRET; antibody titrated against 10 nM AF647-PCSK9 and about 4 nM Eu-LDLR ectodomain. How it is done: After at least 90 minutes of equilibration, samples were read in a Rubystar reader (BMG Corp.) using 20 flashes per well, a 50 μsec integration delay, and a 200 μsec total integration time.
(Time-resolved FRET reads energy transfer from a long-lived donor to a nearby acceptor.)

For a further assay, the target named is T4, human FcRn (human, UniProt P55899 24-297; P61769 21-119, limits assumed).
T4 construct: Beta-2-microglobulin is not mentioned for the purified protein; also called human FeRn
T4 sequence (P55899 24-297 limits assumed, form in doubt, chain 1 of 2): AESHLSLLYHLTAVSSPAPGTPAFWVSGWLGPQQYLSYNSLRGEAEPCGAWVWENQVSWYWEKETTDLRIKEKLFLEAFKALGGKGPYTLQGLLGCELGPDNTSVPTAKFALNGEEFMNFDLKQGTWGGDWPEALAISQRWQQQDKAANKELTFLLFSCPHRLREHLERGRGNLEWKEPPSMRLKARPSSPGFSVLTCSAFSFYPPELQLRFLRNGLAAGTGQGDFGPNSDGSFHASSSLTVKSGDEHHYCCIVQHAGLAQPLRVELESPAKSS
T4 sequence (P61769 21-119 limits assumed, form in doubt, chain 2 of 2): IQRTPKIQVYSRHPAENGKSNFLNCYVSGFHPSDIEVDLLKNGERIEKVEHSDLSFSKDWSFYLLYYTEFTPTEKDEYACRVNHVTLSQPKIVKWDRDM
Description: Biacore; human FcRn immobilised, 100 nM mAb bound at pH 6.0, read 5 s into dissociation at pH 7.3. How it is done:
The neutral pH dissociation of mAbs from human FeRn was measured by SPR using a Biacore T-100 instrument. Briefly, purified FeRn protein was immobilized onto a Biacore CM5 biosensor chip and PBSP (50 mM NaPO4, 150 mM NaCl and 0.05% (v/v) Surfactant 20) pH 7.3 was used as running buffer. The mAbs were diluted with PBSP pH 6.0 to 100 nM, allowed to bind FcRn for 3 minutes to reach equilibrium and followed by 1 minute of dissociation in pH 7.3 running buffer. A report point (Stability) was inserted at 5 seconds after the end of mAb binding and the “% bound” was calculated as RUStability/RUBinding (%).

T1 sequence (Q8NBP7 31-692 limits assumed): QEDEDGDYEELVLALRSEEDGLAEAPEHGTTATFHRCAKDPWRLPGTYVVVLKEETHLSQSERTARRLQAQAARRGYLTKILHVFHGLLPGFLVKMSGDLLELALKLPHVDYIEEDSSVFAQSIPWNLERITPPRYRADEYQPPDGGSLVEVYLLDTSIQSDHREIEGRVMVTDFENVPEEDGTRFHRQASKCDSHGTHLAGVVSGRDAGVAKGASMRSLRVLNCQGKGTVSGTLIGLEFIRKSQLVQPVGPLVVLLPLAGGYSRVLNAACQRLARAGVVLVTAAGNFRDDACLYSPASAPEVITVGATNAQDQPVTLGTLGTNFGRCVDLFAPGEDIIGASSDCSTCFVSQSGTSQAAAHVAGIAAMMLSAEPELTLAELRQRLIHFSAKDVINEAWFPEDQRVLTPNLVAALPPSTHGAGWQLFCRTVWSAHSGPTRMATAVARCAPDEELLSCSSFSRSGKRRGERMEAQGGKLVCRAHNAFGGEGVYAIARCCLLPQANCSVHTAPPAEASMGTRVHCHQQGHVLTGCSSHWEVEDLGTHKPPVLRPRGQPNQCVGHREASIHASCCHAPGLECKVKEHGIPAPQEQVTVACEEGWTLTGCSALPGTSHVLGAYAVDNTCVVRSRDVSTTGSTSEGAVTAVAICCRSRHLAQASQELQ

B1: AX9 IgG1 (antibody, V domains shown)
VH: EVQLLESGGGLVQPGGSLRLSCKASGYTFSSYWMHWVRQAPGKGLEWIGRIDPYNGGTKYNEKFKGKATISRDNSKNTLYLQMNSLRAEDTAVYYCARYGYYLGSYAMDYWGQGTLVTVSS
VL: DIQMTQSPSSLSASVGDRVTITCRASQDVSKYLAWYQQKPGKAPKLLIYAASSLQSGVPSRFSGSGSGTDFTLTISSLQPEDFATYYCQVYDSSPNAYVFGGGTKVEIK
With B1, the figures for the “IgG IC50 (nM), inhibition of PCSK9 on LDL uptake (Exopolar assay)” value in the assay with human PCSK9 [1] and in the assay with rhesus PCSK9 were 10.7 nM and 30.3 nM, respectively.

B2: AX1 IgG2 (antibody)
heavy: EVQLLESGGGLVQPGGSLRLSCKASGFTFTSYYMHWVRQAPGKGLEWIGRINPDSGSTKYNEKFKGRATISRDNSKNTLYLQMNSLRAEDTAVYYCARGGRLSWDFDVWGQGTLVTVSSASTKGPSVFPLAPCSRSTSESTAALGCLVKDYFPEPVTVSWNSGALTSGVHTFPAVLQSSGLYSLSSVVTVPSSNFGTQTYTCNVDHKPSNTKVDKTVERKCCVECPPCPAPPVAGPSVFLFPPKPKDTLMISRTPEVTCVVVDVSHEDPEVQFNWYVDGVEVHNAKTKPREEQFNSTFRVVSVLTVVHQDWLNGKEYKCKVSNKGLPAPIEKTISKTKGQPREPQVYTLPPSREEMTKNQVSLTCLVKGFYPSDIAVEWESNGQPENNYKTTPPMLDSDGSFFLYSKLTVDKSRWQQGNVFSCSVMHEALHNHYTQKSLSLSPGK
light: DIQMTQSPSSLSASVGDRVTITCRASQDISRYLAWYQQKPGKAPKLLIYAASSLQSGVPSRFSGSGSGTDFTLTISSLQPEDFATYYCAAYDYSLGGYVFGDGTKVEIKRTVAAPSVFIFPPSDEQLKSGTASVVCLLNNFYPREAKVQWKVDNALQSGNSQESVTEQDSKDSTYSLSSTLTLSKADYEKHKVYACEVTHQGLSSPVTKSFNRGEC
notes: Made in HEK293 cells or in glycoengineered Pichia
Turning to B2, the figures for the IgG IC50 (nM), inhibition of PCSK9 on LDL uptake (Exopolar assay) with rhesus PCSK9 (rhesus) [2] and with human PCSK9 [1] were 11.2 nM and 7 nM, respectively. Moreover, the Kd (usually the concentration at which binding is half-saturated) with rhesus PCSK9 (rhesus) [3] was found to be 8.61 nM; with human PCSK9 [4], 5.75 nM; in the assay with human PCSK9 [5], 5.75 nM; with rhesus PCSK9 (rhesus) [6] it was 4.2 nM; in the assay with human PCSK9 [7] it was 5.75 nM. Also, the binding result in the assay with mouse PCSK9 and in the assay with rat PCSK9 was “no binding” throughout. Also, in the assay with human PCSK9 [8], the IC50 (as a rule, the concentration at which inhibition is half-maximal) was determined as 1 nM. Further, in the assay with human FcRn, the “% bound (RUStability/RUBinding)” value turned out to be 5%.
